Laboratory results as given in US20220169740A1 (KINDRED BIOSCIENCES, published 2022).

Assays:
[1] = biological target: T1, human NGF (Sino Biological, Inc.; Catalog No. 11050-HNAC) (human, UniProt P01138 122-241, limits assumed, biotinylated in the Octet assay of Example 3 (sites not given); not biotinylated in the TF1 assay); assay: cell-based or functional assay
[2] = biological target: T1, human NGF (Sino Biological, Inc.; …); assay: BLI (Octet); biotinylated human NGF on streptavidin tips, TrkA-Fc 25 ug/mL; 1:1 fit
Procedure: Binding activity of canine, feline, and equine TrkA ECD v2 and v3 fusion polypeptides prepared in Example 2 (SEQ ID NOs: 16, 17, 19, 20, 22, and 23) to commercially-available human NGF was considered. The binding analysis was performed using a biosensor Octet as follows. Briefly, human NGF (Sino Biological, Inc.; Catalog No. 11050-HNAC) was biotinylated. The free unreacted biotin was removed from biotinylated NGF by extensive dialysis. Biotinylated NGF was captured on streptavidin sensor tips. The association of NGF with TrkA-Fc (25 ug/mL) was monitored for 600 seconds. Dissociation was monitored for 600 seconds. A buffer only blank curve was subtracted to correct for any drift. The data were fit to a 1:1 binding model using ForteBio™ data analysis software to determine the kₒₙ, koff, and the Kd. The buffer for dilutions and all binding steps was: 20 mM phosphate, 150 mM NaCl, pH 7.2.
FIG. 1 and FIG. 2 are sensorgrams showing that canine, feline, and equine TrkA ECD v2 and v3 fusion polypeptides all bind NGF. […] Irrelevant canine and feline IgG-Fc fusion proteins were used as a negative control.

T1 sequence (P01138 122-241 limits assumed): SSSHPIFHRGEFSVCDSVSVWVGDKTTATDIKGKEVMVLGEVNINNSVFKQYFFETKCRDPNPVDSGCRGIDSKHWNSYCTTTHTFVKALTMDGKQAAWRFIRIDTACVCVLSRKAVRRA

B1: Equine TrkA ECD v2-variant equine IgG2 Fc (Protein A+, C1q-, CD16-) (Fc fusion)
chain: VSFPASVHLQTAVEQHHWCIPFSVDGQPAPTLRWLFNGSVLNETSFIFTEFLESAANETMRHGCLRLNQPTHVNNGNYTLLATNPYGQDSASVMVAFMDNPFEFNPEDPIPVSFSPVDTNSTSRDPPCVLSAEGVIPIPSVPKPQCPPYTHSKFLGGPSVFIFPPNPKDTLMISRTPVVTCVVVNLSDQYPDVQFSWYVDNTEVHSAITKQREAQFNSTYRVVSVLPIQHQDWLSGKEFKCSVTNVGVPQPISRAISRGKGPSRVPQVYVLPPHPDELAKSKVSVTCLVKDFYPPDISVEWQSNRWPELEGKYSTTPAQLDGDGSYFLYSKLSLETSRWQQVESFTCAVMHEALHNHYTKTDISESLGK
notes: CHO; also called equine TrkA ECD v2 fusion polypeptide; equine TrkA v2
With B1 the “IC50, TF1 cell proliferation assay (CellTiter-Glo luminescence; NGF at 10 ng/ml)” value [1] was 5.4 nM and the Kd [2] was ~1 nM.
